In US5624900A, “Peptide or its salts” (Kuraray Co., Ltd., priority 1990, dated 1997):
Non-standard residues stand in square brackets, D forms with d. Nle = CCCC[C@H](N)C(=O)O

Target: T1, human IL-1β (Homo sapiens, UniProt P01584)
T1 construct: purchased Amersham Japan
Test: Binding activity for human IL-1: 125I-labelled human IL-1β retained on peptide-immobilized cellulose adsorbent
Conditions: radioactivity remaining on 100 mg adsorbent (1 mg peptide fixed per g cellulose) after about 300 Bq 125I-labelled human IL-1β, room temperature 3 hours, 5 washes; γ counter
Protocol: Adsorbents each having fixed 1 mg of one of the peptides obtained in Examples 1 through 15 and the Comparative Example were prepared as follows. One gram of a granular cellulose (CM-CELLULOFINE CH, available from Seikagaku Kogyo Co., Ltd.) is suspended in 5 ml of dioxane purified by distillation in the presence of sodium metal. To the suspension thus obtained was added 0.05 g of N-hydroxysuccinimide and 0.1 g of dicyclohexylcarbodimide, and the mixture was shaken at a room temperature for 1 night. The mixture thus obtained was washed with a 0.02 mole/l phosphate buffer (pH: 7.4) and then filtered with suction. The granules thus obtained were mixed with 1 ml of 0.02 mol/l phosphate buffer or purified water containing 1 mg of each one of the peptides obtained in Examples 1 through 15 and the Comparative Example. The mixtures were shaken overnight at a temperature of 4° C. and filtered with suction.
From the thus prepared adsorbents, 100 mg each was weighed, and thereto was added 100 μl of 5% solution of bovine serum albumin in PBS (a 10 mM phosphate buffer solution containing 0.15M NaCl, pH: 7.4). The mixtures were incubated overnight at 4° C., then about 300 Bq of ^125 I-labelled human IL-1β (purchased from Amersham Japan) was added to them and the mixtures were incubated at a room temperature for 3 hours. The reaction mixtures thus obtained were washed 5 times with Tris buffer containing 0.2% of Triton X-100 and then tested for radioactivity remaining on the adsorbents with a γ counter.

T1 sequence (P01584 117-269): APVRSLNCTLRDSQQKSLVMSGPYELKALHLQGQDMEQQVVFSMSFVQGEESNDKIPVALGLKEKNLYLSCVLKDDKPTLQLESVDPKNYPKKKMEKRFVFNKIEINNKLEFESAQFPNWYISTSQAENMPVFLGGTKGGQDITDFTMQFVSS

Compound | Radioactivity (cpm)
H-CLRIKIS-OH [Example 6] | 815
H-Cys-Leu-Gln-Ile-Lys-Ile-Ser-OH (H-CLQIKIS-OH) [Example 8] | 678
H-Lys-Ile-Cys-Ile-Arg-Ile-Gln-Ile-Ser-OH (H-KICIRIQIS-OH) [Example 10] | 1373
H-Lys-Ile-Cys-Ile-His-Ile-Gln-Ile-Ser-OH (H-KICIHIQIS-OH) [Example 12] | 1167
H-Lys-Tyr-Cys-Leu-Arg-Ile-Lys-Ile-Ser-Ala-Lys-Phe-Val-Glu-Asn-Glu-Pro-OH (H-KYCLRIKISAKFVENEP-OH) [Example 3] | 1171
H-Val-Val-Arg-Asn-Ser-Ser-Tyr-Cys-Leu-Arg-Ile-Lys-Ile-Ser-Ala-Lys-OH (H-VVRNSSYCLRIKISAK-OH) [Example 1] | 922
H-Tyr-Cys-Leu-Arg-Ile-Lys-Ile-Ser-OH (H-YCLRIKIS-OH) [Example 5] | 840
H-Lys-Cys-Leu-Arg-Ile-Lys-Ile-Ser-OH (H-KCLRIKIS-OH) [Example 7] | 576

Next, values leading:

Radioactivity (cpm) | Compound
1292 | H-K[Nle]C[Nle]R[Nle]Q[Nle]S-OH [Example 11]
891 | H-Tyr-Cys-Leu-Arg-Ile-Lys-Ile-Ser-Ala-Lys-OH (H-YCLRIKISAK-OH) [Example 4]
1427 | H-Lys-Ile-Cys-Ile-Arg-Ile-Gln-Ile-Ser-NH2 (H-KICIRIQIS-NH2) [Example 15]
890 | H-Lys-Cys-Val-Gln-Val-Gln-Val-Ser-OH (H-KCVQVQVS-OH) [Example 14]
1100 | H-Lys-Cys-Leu-Gln-Ile-Gln-Ile-Ser-OH (H-KCLQIQIS-OH) [Example 9]
764 | H-Lys-Asn-Ser-Ser-Tyr-Cys-Leu-Arg-Ile-Lys-Ile-Ser-Ala-Lys-Phe-Val-Glu-OH (H-KNSSYCLRIKISAKFVE-OH) [Example 2]
45 | NCC(=O)O [Reference Example, glycine, reference compound]
84 | H-Tyr-Ser-Leu-Glu-Ile-Lys-Ile-Ser-OH (H-YSLEIKIS-OH) [Comparative Example, reference compound]
1245 | H-Lys-Ile-Cys-Leu-Arg-Ile-Gln-Ile-Ser-OH (H-KICLRIQIS-OH) [Example 13]
